Laboratory results as given in article PMC10275983.
Values joined by “and” are separate entries in the source; they are usually repeats but may differ in a detail not shown here. Identical values can stand only once.

B1: BCY16207 (E9) (peptide)
chain: ACMNPFFYDCETVCA
modifications: not checked
B2: BCY15354 (E1) (peptide)
chain: ACEYVGPMCYRLYCA
modifications: not checked
B3: BCY15231 (E3) (peptide)
chain: ACEDNDWVYCSTCA
modifications: not checked

Biological target: S1 (Novus Biologicals NBP2-90985) (SARS-CoV-2), P0DTC2
Experiment: AlphaScreen or HTRF

| Binder | IC50 |
| --- | --- |
| B1 | 1.1 µM |
| B2 | 0.36 µM and 1.6 µM and 0.55 µM |
| B3 | 0.31 µM and 0.4 µM |
